Laboratory results reported in US20220153832A1 (PIONYR IMMUNOTHERAPEUTICS, published 2022).
Each block holds one binder with its values, some of them ahead of it.

Legend:
[1] = target: T1, Cynomolgus MARCO, full length, on cells (cynomolgus, UniProt A0A2K5X0Z2 1-519); test: flow cytometry, 293T (CyMARCO)
T1 construct: whole, on cells; also called cyno MARCO; CyMARCO
T1 sequence: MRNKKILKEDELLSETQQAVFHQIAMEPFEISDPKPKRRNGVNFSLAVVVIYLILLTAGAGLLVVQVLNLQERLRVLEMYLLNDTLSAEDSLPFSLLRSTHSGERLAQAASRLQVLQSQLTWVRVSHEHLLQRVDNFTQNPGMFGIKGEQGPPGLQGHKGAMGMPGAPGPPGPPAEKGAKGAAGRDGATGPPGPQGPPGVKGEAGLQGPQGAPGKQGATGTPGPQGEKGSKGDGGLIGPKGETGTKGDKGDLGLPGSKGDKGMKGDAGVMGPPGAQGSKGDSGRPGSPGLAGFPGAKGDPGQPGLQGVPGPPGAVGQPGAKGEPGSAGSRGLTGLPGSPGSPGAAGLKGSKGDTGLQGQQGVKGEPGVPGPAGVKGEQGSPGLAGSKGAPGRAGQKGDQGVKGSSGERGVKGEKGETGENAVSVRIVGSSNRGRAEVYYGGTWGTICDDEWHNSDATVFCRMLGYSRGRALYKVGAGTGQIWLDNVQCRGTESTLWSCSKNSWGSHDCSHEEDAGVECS
Procedure: Supernatants were removed and cell pellets were resuspended in Ca²⁺+ and Mg²⁺+ Dulbecco's phosphate-buffered saline (D-PBS) at 1×10⁶ cells/ml. 100,000 cells/well were plated onto U-bottom 96-well plates for staining and all centrifugation steps were performed at 1500 rpm at 4° C. for 5 min and samples were kept protected from light throughout the protocol. Cells were pelleted and resuspended in 100 μl of Zombie NIR viability dye (BioLegend) prepared by diluting Zombie NIR dimethyl sulfoxide (DMSO) stock 1000-fold in D-PBS. […] Flow cytometry data were analyzed using FlowJo software (version 10.6.1) and data were processed and further analyzed in Microsoft Excel and GraphPad Prism software (version 8). Half-maximal effective concentrations (EC₅₀) were calculated based on geometric mean fluorescence intensities (gMFI). In case when the plates were not able to be analyzed on the cytometer, cells were pelleted after the washes and fixed in 100 μl of 2% paraformaldehyde (PFA), prepared by diluting the 16% (w/v) stock (Thermo Fisher) in DPBS, for 15 min at RT. […]

[2] = target: T2, N-terminally polyhistidine tagged human MARCO ECD (147-520), recombinant (human, UniProt Q9UEW3 147-520); test: Biacore; oxidation stress sample (1 mM AAPH, 6 hrs)
T2 construct: also called PI-RG-3000; recombinant human MARCO; not shown: N-terminal polyhistidine tag
T2 sequence: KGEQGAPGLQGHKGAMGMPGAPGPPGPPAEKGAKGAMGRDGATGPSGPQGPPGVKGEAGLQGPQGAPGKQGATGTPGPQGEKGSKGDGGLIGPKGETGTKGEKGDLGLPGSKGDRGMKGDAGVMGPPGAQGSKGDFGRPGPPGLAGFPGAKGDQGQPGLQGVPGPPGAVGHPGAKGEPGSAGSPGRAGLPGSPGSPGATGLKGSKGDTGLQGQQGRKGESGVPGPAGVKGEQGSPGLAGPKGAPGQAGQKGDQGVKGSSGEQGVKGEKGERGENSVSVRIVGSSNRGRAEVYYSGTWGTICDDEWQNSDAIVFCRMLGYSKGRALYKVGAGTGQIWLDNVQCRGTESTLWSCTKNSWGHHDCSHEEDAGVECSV

[3] = target: T2, N-terminally polyhistidine tagged human …; test: Biacore; sample oxidized with 1.5% H2O2 (24 hr, RT)
Procedure: (PBS)+1 mM AAPH for 6 h, 0.5 and 1.5% H₂O₂ in PBS for 24 h, which was compared to a previous experiment at 40° C. (PBS)+1 mM AAPH for 6 h. Post treatment the samples were analyzed by LC-MS/MS which identified the % modification on isolated peptides derived from the antibody after trypsin digest.
Binding of the stressed samples to recombinant human MARCO was assessed by Biacore.

[4] = target: T3, Mouse MARCO, full length, on cells (mouse, UniProt Q60754 1-518); test: competition with AF488 E. coli binding to muMARCO 293T cells, flow cytometry
T3 construct: whole, on cells; the cell type is named under assay; also called muMARCO; MuMARCO
T3 sequence (looked up): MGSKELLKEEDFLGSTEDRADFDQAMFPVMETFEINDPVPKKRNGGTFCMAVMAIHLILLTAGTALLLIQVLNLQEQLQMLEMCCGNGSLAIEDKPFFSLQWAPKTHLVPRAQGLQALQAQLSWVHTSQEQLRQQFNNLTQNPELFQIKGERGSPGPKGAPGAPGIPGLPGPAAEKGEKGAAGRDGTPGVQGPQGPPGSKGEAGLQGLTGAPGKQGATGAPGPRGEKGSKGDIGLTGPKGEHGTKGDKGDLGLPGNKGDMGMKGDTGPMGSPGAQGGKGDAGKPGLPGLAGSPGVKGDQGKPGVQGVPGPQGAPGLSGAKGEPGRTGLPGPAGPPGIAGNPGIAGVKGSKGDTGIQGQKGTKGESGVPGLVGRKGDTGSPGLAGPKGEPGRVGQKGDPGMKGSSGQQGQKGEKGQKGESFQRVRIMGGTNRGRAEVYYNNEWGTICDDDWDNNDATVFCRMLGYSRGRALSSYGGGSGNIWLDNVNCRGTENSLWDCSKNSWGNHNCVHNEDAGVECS

EC50 [1]: 0.51 nM
B1: PI-HX-3031 (antibody)
heavy: QVQLKESGPGLVQPSQTLSLTCTVSGFSLTSYHVSWVRQPPGKGLEWMGAIWTGGSIAYNSLLKSRLSISRDTSKSQVFLKMNSLQTEDTATYYCARDLSDYYSSYTSFDYWGQGVMVTVSTAETTAPSVYPLAPGTALKSNSMVTLGCLVKGYFPEPVTVTWNSGALSSGVHTFPAVLQSGLYTLTSSVTVPSSTWSSQAVTCNVAHPASSTKVDKKIVPRECNPCGCTGSEVSSVFIFPPKTKDVLTITLTPKVTCVVVDISQNDPEVRFSWFIDDVEVHTAQTHAPEKQSNSTLRSVSELPIVHRDWLNGKTFKCKVNSGAFPAPIEKSISKPEGTPRGPQVYTMAPPKEEMTQSQVSITCMVKGFYPPDIYTEWKMNGQPQENYKNTPPTMDTDGSYFLYSKLNVKKETWQQGNTFTCSVLHEGLHNHHTEKSLSHSP
light: DIQMTQSPASLSTSLGETVSIECLASEGISNDLAWYQQKSGKSPQLLIYAASRLQDGVPSRFSGSGSGTRYSLKISGMQPEDEADYFCQQSYKYPLTFGSGTKLEIKRADAAPTVSIFPPSTEQLATGGASVVCLMNNFYPRDISVKWKIDGTERRDGVLDSVTDQDSKDSTYSMSSTLSLTKADYESHNLYTCEVVHKTSSSPVVKSFNRNEC
notes: Parental rat hybridoma, rat IgG2a

Kd [2]: 1.29 nM | Kd [3]: 1.07 nM
B2: PI-3015-AB (antibody, human IgG1, kappa)
heavy: not shown
light: DIQMTQSPSSLSASVGDRVTITCRASEGISNDLAWYQQKPGKAPKLLIYAASRLQSGVPSRFSGSGSGTDYTLTISSMQPEDFATYYCQQSYKYPLTFGQGTKLEIKRTVAAPSVFIFPPSDEQLKSGTASVVCLLNNFYPREAKVQWKVDNALQSGNSQESVTEQDSKDSTYSLSSTLTLSKADYEKHKVYACEVTHQGLSSPVTKSFNRGEC

EC50 [4]: 0.85 nM
B3: PI-HX-3061 (antibody, rat IgG2a)
heavy: EVQLVESGGGLVQPGSSLKLSCVASKFTFSNYGMNWIRQAPKKGLEWIALIYYNSNNKYYADSVKGRFTISRDNSKNTLYLEMNSLRSEDTAMYYCAKSLTGGSDYFDSWGQGVMVTVSSAETTAPSVYPLAPGTALKSNSMVTLGCLVKGYFPEPVTVTWNSGALSSGVHTFPAVLQSGLYTLTSSVTVPSSTWPSQTVTCNVAHPASSTKVDKKIVPRNCGGDCKPCICTGSEVSSVFIFPPKPKDVLTITLTPKVTCVVVDISQDDPEVHFSWFVDDVEVHTAQTRPPEEQFNSTFRSVSELPILHQDWLNGRTFRCKVTSAAFPSPIEKTISKPEGRTQVPHVYTMSPTKEEMTQNEVSITCMVKGFYPPDIYVEWQMNGQPQENYKNTPPTMDTDGSYFLYSKLNVKKEKWQQGNTFTCSVLHEGLHNHHTEKSLSHSP
light: DVQMTQSPSYLAASPGESVSISCKASKSIGTFLAWYQEKPEKTNKLLIYSGSTLQSGTPSRFSGSGSGTDFTLTIRNLEPEDFAVYYCQQHDEYPFTFGSGTKLEIKRADAAPTVSIFPPSTEQLATGGASVVCLMNNFYPRDISVKWKIDGTERRDGVLDSVTDQDSKDSTYSMSSTLSLTKADYESHNLYTCEVVHKTSSSPVVKSFNRNEC
notes: Parental rat hybridoma, rat IgG2a; cross reactive with human and mouse MARCO
